# Assay results as given in US20250270304A1 (PHENOMIC AI, published 2025).
# T1: Latent Activin A (human, UniProt P08476 21-426, limits assumed)
# T1 construct: also called INHBA latent
# T1 sequence: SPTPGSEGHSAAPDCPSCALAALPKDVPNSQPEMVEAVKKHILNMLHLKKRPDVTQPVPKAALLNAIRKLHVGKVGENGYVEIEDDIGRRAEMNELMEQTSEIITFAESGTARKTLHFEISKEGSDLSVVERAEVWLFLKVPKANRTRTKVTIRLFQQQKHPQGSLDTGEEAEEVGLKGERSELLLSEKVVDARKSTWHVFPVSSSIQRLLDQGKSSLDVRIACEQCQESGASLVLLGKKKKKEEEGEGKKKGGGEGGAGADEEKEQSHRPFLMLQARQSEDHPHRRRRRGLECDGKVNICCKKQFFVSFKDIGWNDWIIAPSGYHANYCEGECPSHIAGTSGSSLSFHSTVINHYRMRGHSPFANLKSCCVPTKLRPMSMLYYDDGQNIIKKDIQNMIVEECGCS
# T2: Mature Activin A (human, UniProt P08476 311-426)
# T2 construct: also called active Activin A; INHBA mature
# T2 sequence: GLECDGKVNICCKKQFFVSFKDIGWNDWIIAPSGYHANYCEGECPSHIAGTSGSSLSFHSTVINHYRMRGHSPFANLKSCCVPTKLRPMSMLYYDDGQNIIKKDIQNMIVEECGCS
# T3: Activin B (Homo sapiens (Human), UniProt P09529 293-407)
# T3 construct: also called Mature Activin B; mature Activin B
# T3 sequence: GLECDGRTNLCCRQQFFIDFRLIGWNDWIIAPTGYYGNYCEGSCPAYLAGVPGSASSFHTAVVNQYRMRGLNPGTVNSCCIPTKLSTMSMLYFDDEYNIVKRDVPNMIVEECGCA
# T4: Inhibin A (Homo sapiens (Human), UniProt P05111 233-366; P08476 311-426)
# T4 sequence 1: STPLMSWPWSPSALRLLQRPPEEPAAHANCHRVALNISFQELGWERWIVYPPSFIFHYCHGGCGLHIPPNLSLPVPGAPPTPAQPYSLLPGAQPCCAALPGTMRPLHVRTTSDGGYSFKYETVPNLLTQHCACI
# T4 sequence 2: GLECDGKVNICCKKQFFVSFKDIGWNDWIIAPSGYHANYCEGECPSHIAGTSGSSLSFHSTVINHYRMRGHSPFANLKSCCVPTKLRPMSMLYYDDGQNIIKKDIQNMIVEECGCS
# Key:
# [1] = biological target: T1, Latent Activin A; assay: ELISA, coated antigen, OD450
# Procedure: (§1) Antibodies were re-expressed in 40 mL cultures of Expi293 cells and purified using protein G magnetic sepharose beads (Cytiva, Marlborough, MA) to provide larger quantities for secondary screening. Secondary screening included dose responses in both functional assays described above (SMAD nuclear localization and fibroblast activations assays) as well as in binding assays to the same antigens listed in Table 3. Plates were coated with 25 μL of 3 μg/mL antigen in 384-well Maxisorp plates overnight at 4° C. with agitation. The next day, the samples in the plates were blocked with 70 μL blocking buffer (PBS+1% BSA+0.1% Tween-20) for 2 hours at room temperature. Plates were then washed three times with 100 μL of wash buffer (PBS+0.1% Tween-20). Primary antibodies in Expi293 expression medium were diluted 1:3 in blocking buffer, 25 μL added per well, and the plates were incubated for an hour at room temperature with agitation. Plates were then washed three times and 25 μL of secondary antibody (goat anti-Human IgG, HRP conjugated; Jackson Immunoresearch) diluted 1:5000 in blocking buffer was added for 30 minutes at room temperature. The wells in the plates were washed six times with wash buffer and TMB substrate was added followed by 1 M H3PO4.
# [2] = biological target: T2, Mature Activin A; assay: ELISA, coated antigen, OD450
# Procedure: as §1
# [3] = biological target: T3, Activin B; assay: ELISA, coated antigen, OD450
# Procedure: as §1
# [4] = biological target: T4, Inhibin A; assay: ELISA, coated antigen, OD450
# Procedure: as §1
# [5] = biological target: T1, Latent Activin A; assay: ELISA dose-response, coated antigen
# Procedure: as §1
# [6] = biological target: T2, Mature Activin A; assay: ELISA dose-response, coated antigen
# Procedure: as §1
# [7] = biological target: T3, Activin B; assay: ELISA dose-response, coated antigen
# Procedure: as §1
# [8] = biological target: T3, Activin B; assay: ELISA, coated antigen, OD450; remark: listed apart in the source
# [9] = biological target: T4, Inhibin A; assay: ELISA, coated antigen, OD450; remark: listed apart in the source
# [10] = biological target: T4, Inhibin A; assay: ELISA dose-response, coated antigen (row 'Inhibin')
# Procedure: as §1
# [11] = biological target: T3, Activin B; assay: ELISA dose-response, coated antigen; dose-response ELISA, 1:3 dilutions from 133 nM; weak binding within the tested range
# Procedure: as §1
# [12] = biological target: T3, Activin B; assay: ELISA, coated antigen, OD450; secondary screen, single OD 450 reading as fold over negative control; below the 1.40-fold cut-off
# Procedure: as §1
Binder,fold-change of OD 450 over negative control (BSA) [1],fold-change of OD 450 over negative control (BSA) [2],fold-change of OD 450 over negative control (BSA) [3],fold-change of OD 450 over negative control (BSA) [4],EC50 [5],EC50 [6],EC50 [7],binding result [8],binding result [9],EC50 [10],EC50 [11],fold-change of OD 450 over negative control (BSA) [12]
"AB347 (antibody, IgG1, V domains shown) VH: QVQLQESGPGLVKPSQTLSLTCTVSGFPLSTSRMGVNWIRQPPGKGLEWIGYINPSGATDYNPSLKSRVTMSVDTSKNQFSLKVNSVTAADTAVYYCARAGYPDVWGKGTTVTVSS VL: EIVMTQSPATLSLSPGERATLSCRASQNIGHSLAWYQQKPGQAPRLLIYGASIRAPGIPARFSGSGSGTDFTLTISSLEPEDFAVYYCQQYITWPSTFGGGTKVEIK",10.2 fold,10.2 fold,2.54 fold,0.74 fold,2.46 nM,0.72 nM,0.95 nM,–,–,–,–,–
"AB350 (antibody, IgG1, V domains shown) VH: QVQLQESGPGLVKPSQTLSLTCTVSGVSLSDARMGVNWIRQPPGKGLEWIGYVSTTGTTDYNPSLKSRVTMSVDTSKNQFSLKVNSVTAADTAVYYCARAGYPDVWGKGTLVTVSS VL: EIVMTQSPATLSLSPGERATLSCRASESVRSNLAWYQQKPGQAPRLLIYGASNRASGIPARFSGSGSGTDFTLTISSLEPEDFAVYYCQQYHTWPPWAFGGGTKVEIK",7.33 fold,10.6 fold,0.74 fold,0.65 fold,–,–,–,no binding (tested: 1.40-fold over BSA),no binding (tested: 1.40-fold over BSA),–,–,–
"AB353 (antibody, IgG1, V domains shown) VH: QVQLQESGPGLVKPSQTLSLTCTVSGLSLSNAKMGVNWIRQPPGKGLEWIGYVSTTGTTDYNPSLKSRVTMSVDTSKNQFSLKVNSVTAADTAVYYCARAGYPDVWGKGTTVTVSS VL: EIVMTQSPATLSLSPGERATLSCRASQNVYTNLAWYQQKPGQAPRLLIYGASARASGIPARFSGSGSGTDFTLTISSLEPEDFAVYYCLQYGSSPPLFGGGTKVEIK",4.4 fold,8.98 fold,0.72 fold,0.61 fold,–,–,–,no binding (tested: 1.40-fold over BSA),no binding (tested: 1.40-fold over BSA),–,–,–
"AB854 (antibody, IgG1, V domains shown, also called clone 854) VH: EVQLVQSGAEVKKPGASVKVSCKASGYTFPSHYISWVRQAPGQGLEWMGGMNPITGHTIYAQKLQGRGTMTTDPSTSTAYMELRSLRSDDTAVYYCARDMRYDILPGRSYYYGMDVWGQGTTVTVSS VL: ESALTQPASVSGSPGQSITISCTGTTGSIASNYVSWYQQHPGKAPKLMIYDTTNRPPGVSNRFSGSKSGNTASLTISGLQAEDEADYYCQSTERGRSDVIFGGGTKLTVL",–,–,–,–,1 nM,0.03 nM,0.27 nM,–,–,–,–,–
"AB843 (antibody, IgG1, V domains shown) VH: EVQLVQSGAEVKKPGASVKVSCKASGDTSSHSHIHWVRQAPGQGLEWMGWINPRSGATNYAQKLQGRGTMTTDPSTSTAYMELRSLRSDDTAVYYCARDRGGRTNGVGAFDIWGQGTMVTVSS VL: ESALTQPASVSGSPGQSITISCTGTSGDIGRYNYVSWYQQHPGKAPKLMIYEDIERPSGVSNRFSGSKSGNTASLTISGLQAEDEADYYCQVWDATLDLVFGGGTKLTVL",24.9 fold,24.7 fold,24.6 fold,22.9 fold,0.04 nM,0.02 nM,0.03 nM,–,–,0.05 nM,–,–
"AB326 (antibody, IgG1, V domains shown) VH: QVQLVQSGAEVKKPGASVKVSCKVSGYTFTSSAISWVRQAPGKGLEWMGGIYPGSGHTIYAQKFQGRVTMTEDTSTDTAYMELSSLKSEDTAVYYCAREGDIFVMDVWGLGTAVTVSS VL: DIQMTQSPSSVSASVGDRVTITCRASMDIRNDLAWYQQKPGKAPKLLIYDASKLETGVPSRFSGSGSGTDFTLTISSLQPEDFANYYCQQAKSFPPTFGGGTKVEIK",5.91 fold,6.01 fold,0.58 fold,8.53 fold,–,–,–,no binding (tested: 1.40-fold over BSA),–,–,–,–
"AB340 (antibody, IgG1, V domains shown) VH: EVQLVESGGGLVQPGGSLRLSCAASGFTASRNYMSWVRQAPGKGLELVASISGSGDYTYYPDSVKGRFTISRDNAKNSLYLQMNSLRAEDTAVYYCARSPRGPRLLGYYYGMDVWGQGTTVTVSS VL: DIVMTQSPLSLPVTPGEPASISCRSSRSLVHGSGHNYLHWYLQKPGQSPQLLIYGASTRVAGVPDRFSGSGSGTDFTLKISRVEAEDVGVYYCMQGTQAPRTFGGGTKVEIK",1.9 fold,2.33 fold,1.04 fold,1.11 fold,–,–,–,no binding (tested: 1.40-fold over BSA),no binding (tested: 1.40-fold over BSA),–,–,–
"AB731 (antibody, IgG1, V domains shown, also called clone 731) VH: QVQLQQPGTELVKPGASVKLSCKASGYTFTSYWMHWVKQRPGQGLEWIGNINPSNGGTNYNEKFKSKATLTVDKSSSTAYMQLSSLTSEDSAVYYCSITTVVAYWYFDVWGTGTTVTVSS VL: ENVLTQSPAIMSASPGEKVTISCSASSSVSYMYWYQQKPGSSPKPWIFRTYNLASGVPARFSGSGSGTSYSLTISNMEAEDAATYYCQQRSSYPWTFGGGTKLEIK",–,–,–,–,0.87 nM,0.42 nM,0.49 nM,–,–,–,–,–
"Control 2 (antibody, human IgG4 S228P, kappa, V domains shown, also called garetosmab; Garetosmab) VH: QVQLQESGPGLVKPSETLSLTCTVSGGSFSSHFWSWIRQPPGKGLEWIGYILYTGGTSFNPSLKSRVSMSVGTSKNQFSLKLSSVTAADTAVYYCARARSGITFTGIIVPGSFDIWGQGTMVTVSS VL: not shown",21.6 fold,21 fold,–,15.9 fold,0.04 nM,0.07 nM,–,–,–,2.08 nM,11.2 nM,0.71 fold
"AB852 (antibody, IgG1, V domains shown) VH: QVTLRESGPALVKPTQTLTLTCTVSGFSLSDTRWGVNWIRQPPGKALEWIGYINDRGTTDYNSALKSRLTISKDTSKNQVVLTMTNMDPVDTATYYCAHTLHTREFVGMDVWGQGTTVTVSS VL: DIVMTQSPDSLAVSLGERATINCKSSQSVLDTSTNRNYLAWYQQKPGQPPKLLIYGASIRAGGVPDRFSGSGSGTDFTLTISSLQAEDVAVYYCQQYETWPWTFGGGTKVEIK",6.01 fold,8.73 fold,–,0.94 fold,40.9 nM,2.73 nM,–,–,–,–,21.3 nM,0.88 fold
